Read-outs that look alike come from different tables or passages of the source. Blank lines part the entries; values can stand above or below the molecule they belong to. No end group written: not given here. *: point of attachment. FITC = O=C1OC2(c3ccc(O)cc3Oc3cc(O)ccc32)c2ccc(NC(=S)*)cc21
What was measured:
[1] = target: RXR/RAR LBD heterodimer (mouse RXRα LBD with human RARα LBD) (human | mouse) (UniProt P10276); assay: fluorescence polarisation
[2] = target: RXR/RAR LBD heterodimer (mouse RXRα LBD with human RARα LBD) (human | mouse) (UniProt P10276); assay: fluorescence polarisation; remark: listed apart in the source
[3] = target: T1, RARα ligand-binding domain (RAR LBD) (human, UniProt P10276-1 176-421); assay: crystal structure
T1 sequence: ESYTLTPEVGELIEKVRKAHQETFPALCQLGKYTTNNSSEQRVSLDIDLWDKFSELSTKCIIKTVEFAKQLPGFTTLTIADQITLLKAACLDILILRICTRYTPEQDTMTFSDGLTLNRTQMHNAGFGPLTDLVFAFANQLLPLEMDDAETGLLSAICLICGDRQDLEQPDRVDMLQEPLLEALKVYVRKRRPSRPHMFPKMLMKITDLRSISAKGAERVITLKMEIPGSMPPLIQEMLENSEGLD

[4] = target: T1, RARα ligand-binding domain (RAR LBD); assay: crystal structure; remark: listed apart in the source
[5] = target: T1, RARα ligand-binding domain (RAR LBD); assay: fluorescence polarisation

Kd [1]: 1340 nM
fold decrease of Kd against the apo heterodimer [1]: 9 fold
Kd [2]: 200 nM
Molecule: TIF2 nuclear receptor interaction domain (TIF2_(NRID)), residues 624-773, wild type (domain or fragment)

binding result [3]: binds
B1: SRC1 NR2-Ext peptide (RHKILHRLLQEGSPSDITTLSVEPDKK) (peptide)
peptide: RHKILHRLLQEGSPSDITTLSVEPDKK

binding result [4]: binds
B2: TIF2 NR2-Ext peptide (K686-K713), unlabelled (peptide)
peptide: KHKILHRLLQDSSSPVDLAKLTAEATGK

binding result [5]: binds
B3: TIF2 NR2 peptide (KHKILHRLLQDSS), unlabelled (peptide)
peptide: KHKILHRLLQDSS

binding result [5]: binds
B4: FITC-SRC1 NR2 peptide (FITC-LTERHKILHRLLQEGSP) (peptide)
peptide: {FITC}-LTERHKILHRLLQEGSP

binding result [5]: binds
B5: SRC1 NR2 peptide (RHKILHRLLQEGS), unlabelled (peptide)
peptide: RHKILHRLLQEGS
